Patent publication US6861578B1, “Method for plant protection against insects or nematodes by transformation with a nucleic acid encoding equistatin” (Plant Research International B.V., priority 1997, dated 2005)

What was measured:
[1] = molecular target: potato protease inhibitor-insensitive cysteine proteases of Colorado potato beetle (Leptinotarsa decemlineata) larval gut extracts; test: cell-based or functional assay
leafminer proteases = test: Protease activity of adult leafminer fly extract, FITC-hemoglobin; format: biochemical, Liriomyza trifolii
Experimental: (§1) Adult western flower thrips (Frankliniella occidentalis) and leafmirer flies (Liriomyza trifolii) adult were harvested from a culture maintained on chrysanthemum plants and complete thrips and flies were homogenized in extraction on buffer (200 mM β-alanine-HCl, pH 3.5) in a volume of 5 times the weight of the insects. The buffer pH was at the previously determined pH optimum of protease activity towards hemoglobin. Final instar Colorado potato beetle larvae maintained on potato plants as described in example 5 were checked for gut aspartic protease activity by preparing a total gut extract in pH 3 buffer which is optimal for Colorado potato beetle aspartic proteases (200 mM glycine, pH 3). Guts were homogenized in 100 μl buffer per gut. Third instar western corn rootworm larvae maintained on corn roots were used to remove the guts. Ten guts were homogenized in 100 μl water and spinned twice to remove insoluble material. Two types of buffers were used in the enzymatic assay. One with a pH presumably favoring cysteine proteases (50 mM MES, pH 6.5; 0.6 mg/ml L-cysteine) and one for detecting aspartic proteases (200 mM glycine, pH 3). Supernatants were stored at −20° C.
(§2) 2 μl gut extract was combined with 2 μl inhibitor (2 mM pepstatin in methanol, 4 mM E64 in water, 2 mg/ml recombinant equistatin in water. The concentration of the other proteinaceous inhibitors was not known exactly). Appropriate buffers were added to a final volume of 100 μl. After 15′ preincubation 20 μl substrate (5 mg/ml FITC-hemoglobin) was added and incubated for 30-45 min at 37 C.
(§3) Reaction was stopped by the addition of 100 μl 10% TCA. Tubes were centrifuged and 100 μl supernatant mixed with 100 μl 10 N NaOH was measured on a fluorimeter for the extent of hemoglobin hydrolysis. Measurements were done in duplicate on one (thrips, leafminer and western corn rootworm), or three (Colorado potato beetle) different gut extracts and varied by a maximum of +/−5%.

thrips protease activity = test: Protease activity of adult western flower thrips extract, FITC-hemoglobin; format: biochemical, Frankliniella occidentalis; parameters: inhibition of protease activity: concentration or dose not given beside the values
Experimental: as §1, §2, §3

[2] = tested on: Colorado potato beetle proteases; test: Protease activity of Colorado potato beetle larval gut extract at pH 3, FITC-hemoglobin; format: biochemical, Leptinotarsa decemlineata; parameters: inhibition of total protease activity / increase of inhibition by addition of equistatin to E64 / increase of inhibition by addition of equistatin to pepstatin: concentration or dose not given beside the values
Experimental: as §1, §2, §3

[3] = tested on: western corn rootworm cysteine and aspartic protease activity; test: Protease activity of western corn rootworm larval gut extract, FITC-hemoglobin; format: biochemical, Diabrotica virgifera; settings: recombinant equistatin
Experimental: as §1, §2, §3

[4] = molecular target: proteases in extracts of adult leafminer flies (Liriomyza trifolii); test: cell-based or functional assay
[5] = tested on: Colorado potato beetle larval gut extracts (potato protease inhibitor-insensitive cysteine proteases); test: General proteolytic activity of Colorado potato beetle larval gut extracts, azocasein; format: biochemical, Leptinotarsa decemlineata
Source text: Guts of final instar Colorado potato beetle larvae reared on methyl jasmonate induced plants were isolated and extracted essentially as described (Bolter and Jongsma, J. Insect Physiol. 41: 1071-1078). In these gut extracts the proteases that are sensitive to the protease inhibitors of potato are already complexed. The residual protease activity is composed of potato protease-inhibitor-insensitive proteases which were induced in response to the methyl jasmonate induced potato inhibitors. These proteases are the proteases that render the beetle larvae insensitive to protease inhibitor defense of the potato plant. Wle tested a broad range of different cysteisie protease inhibitors for activity specifically against these induced potato protease inhibitor-insensitive cysteine protesses. Nearly all of these inhibitors were purified at the Jozef Stefan Institute in Slovenia. Testing their potential against Colorado potato beetle was done using both general protein substrates (azocasein, table 2) as well as specific synthetic substrates (L-Arg-pNA, table 3; pGlu-Phe-Leu-pNA, table 4; Z-Phe-Arg-pNA, table 5; Z-Arg-Arg-pNA, table 6). In specific cases inhibitors were tested at two concentrations, eauimolar and in excess to the protease, in order to obtain an indication of the tightness of the complex. […] Importantly, this class of inhibitors was capable of inhibiting nearly all general cysteine protease activity. The equistatin peptide molecule and a functional derivative thereof were not very active against the aminopeptidase-like cysteine protease activity. […] The best combination of inhibitors for full toxicity against the Colorado potato beetle would therefore be a combination of equistatin or p41 invariant chain fragment and stefin-like inhibitors.

“porcine stefin D2 (from UniProt P80736 1-35)” was tested, and the residual general proteolytic activity (azocasein) in excess of inhibitor (% residual activity) [1] was 105.

In the case of `CC(C)C[C@H](NC(=O)[C@H]1O[C@@H]1C(=O)O)C(=O)NCCCCN=C(N)N` (relative stereo) [E64, N-(L-3-trans carboxyoxiran-22-carbomyl)-L-leucyl-amido-4-guani-dobutane, reference compound], the “inhibition of protease activity” value (leafminer proteases; leafminer) is reported as 73%, the residual protease activity (leafminer proteases; leafminer pH 3.5, equistatin purified from sea anemone) is reported as 27% and the residual protease activity (thrips protease activity; thrips pH 3.5, equistatin purified from sea anemone) is reported as 8%. The “inhibition of protease activity” value (thrips protease activity; thrips, pH 3.5) was 92%, the “inhibition of total protease activity” value ([2]; Colorado potato beetle, pH3) was 24% and the residual protease activity ([2]; colorado potato beetle pH 3, recombinant equistatin) was 76%. For the same molecule, the residual protease activity ([3]; western corn rootworm pH 3) was 35% and the residual protease activity ([3]; western corn rootworm pH 6.5) was 51%.

Molecule cowpea cystatin has a residual general proteolytic activity (azocasein) in excess of inhibitor (% residual activity) [1] of 75.

“Recombinant human stefin A (from UniProt P01040 1-98)” gave a residual amino-peptidase activity (L-Arg-pNA), equimolar inhibitor (% of residual activity) [1] of 60, a residual amino-peptidase activity (L-Arg-pNA), excess inhibitor (% of residual activity) [1] of 10 and a residual broad spectrum endoprotease activity (Z-Phe-Arg-pNA), equimolar inhibitor (% of residual activity) [1] of 95. It also gave a residual broad spectrum endoprotease activity (Z-Phe-Arg-pNA), excess inhibitor (% of residual activity) [1] of 80, a residual general proteolytic activity (azocasein) in excess of inhibitor (% residual activity) [1] of 90 and a residual narrow spectrum endoprotease activity (Z-Arg-Arg-pNA), excess inhibitor (% of residual activity) [1] of 90. For the same molecule, the residual tri-peptidil-peptidase and endoprotease activity (pGlu-Phe-Leu-pNA), equimolar inhibitor (% of residual activity) [1] was 95 and the residual tri-peptidil-peptidase and endoprotease activity (pGlu-Phe-Leu-pNA), excess inhibitor (% of residual activity) [1] was 90.

With “Recombinant potato cystatin (p.cystatin), a monomer of multicystatin expressed as a fusion protein with glutathione-S-transferase” the residual protease activity (FITC-hemoglobin), pH 3.5 (% residual activity) [4] was 73.

With soybean cystatin the residual general proteolytic activity (azocasein) in excess of inhibitor (% residual activity) [1] was 65.

Work on “human kininogen 3rd domain (from UniProt P01042 273-376)” yielded a residual general proteolytic activity (azocasein) in excess of inhibitor (% residual activity) [1] of 20.

lens cystatin gave a residual general proteolytic activity (azocasein) in excess of inhibitor (% residual activity) [1] of 60.

In the case of bovine kininogen, the residual general proteolytic activity (azocasein) in excess of inhibitor (% residual activity) [1] is reported as 110.

In the case of bromelain inhibitor, the residual general proteolytic activity (azocasein) in excess of inhibitor (% residual activity) [1] is reported as 110.

With PCPI 6.6 the residual general proteolytic activity (azocasein) in excess of inhibitor (% residual activity) [1] was 120.

With “human LMW kininogen (from UniProt P01042 19-427)” the residual general proteolytic activity (azocasein) in excess of inhibitor (% residual activity) [1] was 65.

With “Aspartic protease inhibitor (API) purified from potato” the residual protease activity (FITC-hemoglobin), pH 3.5 (% residual activity) [4] was 37.

For Chelidonium majus cystatin, the residual general proteolytic activity (azocasein) in excess of inhibitor (% residual activity) [1] was 100.

B1: human cystatin c (protein, UniProt P01034 27-146, looked up)
chain: SSPGKPPRLVGGPMDASVEEEGVRRALDFAVGEYNKASNDMYHSRALQVVRARKQIVAGVNYFLDVELGRTTCTKTQPNLDNCPFHDQPHLKRKAFCSFQIYAVPWQGTMTLSKSTCQDA
With B1 the “Residual activity in excess of inhibitor” value [5] was 105% and the residual general proteolytic activity (azocasein) in excess of inhibitor (% residual activity) [1] was 105.

B2: potato multicystatin (protein, UniProt P37842 1-756, looked up)
chain: MAIVGGLVDVPFENKVEFDDLARFAVQDYNQKNDSSLEFKKVLNVKQQIVAGIMYYITFEATEGGNKKEYEAKILLRKWEDLKKVVGFKLVGDDSTMPGGIVNVPNPNNTKFQELARFAIQDYNKKQNAHLEFVENLNVKEQVVAGIMYYITLAATDDAGKKKIYKAKIWVKEWEDFKKVVEFKLVGDDIAKLGGITDVPFPNNPEFQDLARFAIQVYNKKENVHLEFVENLNVKQQVVAGMMYYITLAAIDAGKKKIYETKIWVKEWEDFKKVVEFKLVGDDSAKTGGIINVPNPNSPEFQDLARFAVQDYNNTQNAHLEFVENLNVKEQLVSGMMYYITLAATDAGNKKEYEAKIWVKEWEDFKKVIDFKLVGNDSAKKLGGFTEVPFPNSPEFQDLTRFAVHQYNKDQNAHLEFVENLNVKKQVVAGMLYYITFAATDGGKKKIYETKIWVKVWENFKKVVEFKLVGDDSAKLGGIINVPFPNNPEFQDLARFAVQDYNKKENAHLEFVENLNVKEQLVAGMLYYITLVAIDAGKKKIYEAKIWVKEWENFKKVIEFKLIGDDSAIIGGFTDVPFPNNPEFQDLARFAVQDYNKKENAHLEYVENLNVKEQLVAGMIYYITLVATDAGKKKIYEAKIWVKEWEDFKKVVEFKLVGDDSAKPGGIIIVPFPNSPEFQDLARFAVQDFNKKENGHLEFVENLNVKEQVVAGMMYYITLAATDARKKEIYETKILVKEWENFKEVQEFKLVGDATK
B2 was tested, and the “Residual activity in excess of inhibitor” value [5] was 90% and the residual general proteolytic activity (azocasein) in excess of inhibitor (% residual activity) [1] was 90.

B3: rat stefin A (protein, UniProt P01039 1-103, looked up)
chain: MDPGTTGIVGGVSEAKPATPEIQEVADKVKRQLEEKTNEKYEKFKVVEYKSQVVAGQILFMKVDVGNGRFLHMKVLRGLSGDDDLKLLDYQTNKTKNDELTDF
Molecule B3 has a residual general proteolytic activity (azocasein) in excess of inhibitor (% residual activity) [1] of 90.

B4: porcine stefin B (protein, UniProt Q29290 1-98, looked up)
chain: MMCGAPSATQPATAEIQAIADKVKSQLEEKENKTFPVFKAVEFKSQVVAGRNLFIKVQVDDDDFVHLRVFESLPHENKPLTLSSYQTNKSRHDELTYF
In the case of B4, the “Residual activity in excess of inhibitor” value [5] is reported as 100% and the residual general proteolytic activity (azocasein) in excess of inhibitor (% residual activity) [1] is reported as 100.

B5: Recombinant Kunitz PCPI8.3 (produced in Pichia pastoris) (protein, potato, UniProt P20347 43-222, looked up)
chain: LVLPEVYDQDGNPLRIGERYIINNPLLGAGAVYLYNIGNLQCPNAVLQHMSIPQFLGEGTPVVFVRKSESDYGDVVRVMTVVYIKFFVKTTKLCVDQTVWKVNDEQLVVTGGKVGNENDIFKIMKTDLVTPGGSKYVYKLLHCPSHLGCKNIGGNFKNGYPRLVTVDDDKDFIPFVFIKA
Work on B5 yielded a residual protease activity (FITC-hemoglobin), pH 3.5 (% residual activity) [4] of 43.

B6: porcine stefin D1 (protein, UniProt P35479 1-103, looked up)
chain: MESEEMLAGGLTEPRPATPEIQEIANKVKPQLEEKTNKTYEKFEAIIYRSQVVAGTNYYIKVHVGGNNYVHIRVFQSLPHQEDPLKLIGYQVDKTKDDELTGF
For B6, the residual general proteolytic activity (azocasein) in excess of inhibitor (% residual activity) [1] was 105.

B7: chicken cystatin (protein, UniProt P01038 24-139, looked up)
chain: SEDRSRLLGAPVPVDENDEGLQRALQFAMAEYNRASNDKYSSRVVRVISAKRQLVSGIKYILQVEIGRTTCPKSSGDLQSCEFHDEPEMAKYTTCTFVVYSIPWLNQIKLLESKCQ
In the case of B7, the “Residual activity in excess of inhibitor” value [5] is reported as 105% and the residual general proteolytic activity (azocasein) in excess of inhibitor (% residual activity) [1] is reported as 105.

B8: bovine kininogen: Type III cystatin (protein, UniProt P01044 19-621, looked up)
Kininogen-1: QESSQEIDCNDQDVFKAVDAALTKYNSENKSGNQFVLYRITEVARMDNPDTFYSLKYQIKEGDCPFQSNKTWQDCDYKDSAQAATGECTATVAKRGNMKFSVAIQTCLITPAEGPVVTAQYECLGCVHPISTKSPDLEPVLRYAIQYFNNNTSHSHLFDLKEVKRAQRQVVSGWNYEVNYSIAQTNCSKEEFSFLTPDCKSLSSGDTGECTDKAHVDVKLRISSFSQKCDLYPVKDFVQPPTRLCAGCPKPIPVDSPDLEEPLSHSIAKLNAEHDGAFYFKIDTVKKATVQVVAGLKYSIVFIARETTCSKGSNEELTKSCEINIHGQILHCDANVYVVPWEEKVYPTVNCQPLGQTSLMKRPPGFSPFRSVQVMKTEGSTTVSLPHSAMSPVQDEERDSGKEQGPTHGHGWDHGKQIKLHGLGLGHKHKHDQGHGHHGSHGLGHGHQKQHGLGHGHKHGHGHGKHKNKGKNNGKHYDWRTPYLASSYEDSTTSSAQTQEKTEETTLSSLAQPGVAITFPDFQDSDLIATVMPNTLPPHTESDDDWIPDIQTEPNSLAFKLISDFPETTSPKCPSRPWKPVNGVNPTVEMKESHDFDLVDALL
In the case of B8, the “Residual activity in excess of inhibitor” value [5] is reported as 110%.
